The text below walks through data of paper PMC4856084, “The SEB-1 Transcription Factor Binds to the STRE Motif in Neurospora crassa and Regulates a Variety of Cellular Processes Including the Stress Response and Reserve Carbohydrate Metabolism”.

This data set has as its target GST-SEB-1 (Neurospora crassa, UniProt Q7SH58 1-575). Description: competition. The settings on record: protein: recombinant; tags: N-terminal GST (pGEX-4T1); blunt.

B1: STRE1 oligonucleotide (18 bp) (dsDNA)
DNA 1: GGGATCCCCCTTGAATAC
DNA 2: GTATTCAAGGGGGATCCC
Regarding B1, the binding result is on record as “binds”.
